For experiment [1], the target named is rBla g 1-EC (combined with the scFv for crystallography) (Blattella germanica, UniProt Q9UAM5). Description: SEC.
For experiment [2], the target named is anti-Bla g 1 scFv (chicken). Kind of experiment: crystal structure.
The target in experiment [3] is rBla g 1-EC D76A, with GST tag (Blattella germanica, UniProt Q9UAM5, point mutant). Kind of experiment: ELISA. On the technique in general: In an ELISA, binding on a coated surface is turned into a signal by an enzyme label.
Experiment [4] addresses rBla g 1-EC H113A, with GST tag (Blattella germanica, UniProt Q9UAM5, point mutant). Kind of experiment: ELISA.
For experiment [5], the target named is rBla g 1-EC L60A, with GST tag (Blattella germanica, UniProt Q9UAM5, point mutant). Description: ELISA.
For experiment [6], the target named is rBla g 1-EC Q41A, with GST tag (Blattella germanica, UniProt Q9UAM5, point mutant). Description: ELISA.
The target in experiment [7] is rBla g 1-EC E161A, with GST tag (Blattella germanica, Bla g 1.0101, UniProt Q9UAM5, point mutant). Kind of experiment: ELISA.
The target of experiment [8] is rBla g 1-EC D50A, with GST tag (Blattella germanica, UniProt Q9UAM5, point mutant). Kind of experiment: ELISA.
Experiment [9] deals with rBla g 1-EC I53A, with GST tag (Blattella germanica, UniProt Q9UAM5, point mutant). Description: ELISA.
The target of experiment [10] is rBla g 1-EC T80A, with GST tag (Blattella germanica, UniProt Q9UAM5, point mutant). Description: ELISA.
Experiment [11] concerns the target rBla g 1-EC D107A, with GST tag (Blattella germanica, UniProt Q9UAM5, point mutant). Kind of experiment: ELISA.
The target in experiment [12] is rBla g 1-EC N104A, with GST tag (Blattella germanica, UniProt Q9UAM5, point mutant). Description: ELISA.
Experiment [13] has as its target rBla g 1-EC N93A, with GST tag (Blattella germanica, UniProt Q9UAM5, point mutant). Description: ELISA.
For experiment [14], the target named is rBla g 1-EC E200A, with GST tag (Blattella germanica, UniProt Q9UAM5, point mutant). Kind of experiment: ELISA.
For experiment [15], the target named is rBla g 1-EC E79A, with GST tag (Blattella germanica, UniProt Q9UAM5, point mutant). Description: ELISA.
Experiment [16] deals with rBla g 1-EC Q183A, with GST tag (Blattella germanica, Bla g 1.0101, UniProt Q9UAM5, point mutant). Kind of experiment: ELISA.
Experiment [17] has as its target rBla g 1-EC N193A, with GST tag (Blattella germanica, Bla g 1.0101, UniProt Q9UAM5, point mutant). Description: ELISA.
Experiment [18] addresses rBla g 1-EC V83A, with GST tag (Blattella germanica, UniProt Q9UAM5, point mutant). Kind of experiment: ELISA.
Experiment [19] deals with rBla g 1-EC N96A, with GST tag (Blattella germanica, UniProt Q9UAM5, point mutant). Description: ELISA.

B1: anti-Bla g 1 scFv (scFv, V domains shown)
VH: AVTLDESGGGLQTPGGALSLVCKASGFTFSVYDMMWVRQAPSKGLEWVAGIGITGSTYYASAVKGRATISRDNGQSTVRLQLNNLRAEDTGTYYCARGGAYSINKLDTWGQGTEVIVSS
VL: QAALTQPSSVSANPGETVKITCSGGGSSSNYGWFQQKSPGSAPVTVIYNNNNRPSDIPSRFSGSKSGSTATLTITGVQADDEAVYFCGGRDSTYAGMFGAGTTLTVL
Broadly, the stoichiometry N is the number of molecules, sites or subunits per partner or assembly. B1: the “stoichiometry N” value in experiment [1] is 1 Bla g 1 per scFv (printed as 2:2); in experiment [2] it was 2. For the same molecule, the “ΔΔG against wild type (RT ln(IC50 WT/IC50 mutant))” value is -1.1 kCal/mol in experiment [3]; 0.09 kCal/mol in experiment [4]; 0 kCal/mol in [5]; -0.05 kCal/mol in [6]; 0.33 kCal/mol in [7]; 0.06 kCal/mol in experiment [8]. The “ΔΔG against wild type (RT ln(IC50 WT/IC50 mutant))” value is 0.09 kCal/mol in experiment [9]; -1.7 kCal/mol in experiment [10]; 0.13 kCal/mol in experiment [11]; 0.4 kCal/mol in experiment [12]; 0.31 kCal/mol in experiment [13]; -0.02 kCal/mol in experiment [14]. Also, the “ΔΔG against wild type (RT ln(IC50 WT/IC50 mutant))” value was -1.2 kCal/mol in experiment [15]; 0.33 kCal/mol in [16]; -2.1 kCal/mol in [17]; -0.33 kCal/mol in experiment [18]; 0.33 kCal/mol in [19].

The values above are taken from PMC4097036 (Molecular immunology, 2014).
